For experiment [1], the target named is TAG-72 antigen on a human breast carcinoma extract (human). Nature of the experiment: competition RIA, competitor 125I-CC49 IgG, human breast carcinoma extract.
The target is the same in experiment [2]. In words: competition ELISA, competitor biotin-CC49 IgG, human breast carcinoma extract.

“CC49/212 single-chain antigen-binding protein (monomer) (scFv)” came in with a fold higher protein concentration needed to displace the IgG (against CC49 IgG and bivalent CC49/212) in experiment [1] of 10 fold.

In turn, “CC49/4-4-20 heterodimer Fv (fraction 5) (bispecific antibody)” displayed a fold higher protein concentration needed to displace the IgG (against CC49/212 single-chain Fv) in experiment [2] of 200 fold.

The values are drawn from patent publication US6515110.
